Measurements published in patent US20160311886A1, “Constructs Binding to Phosphatidylserine and Their Use in Disease Treatment and Imaging” (Board of Regents, The University of Texas System, priority 2005, published 2016).

Assays:
[1] = in vivo; cited from earlier work
[2] = test system: cancer patients having progressive disease; conditions: human, in vivo; cited from earlier work
[3] = test system: ABAE cells with exposed PS; test: Binding of monomeric and dimeric hβ2GPI to LPC-treated cells; format: cell-based, bovine; conditions: 200 μM LPC, DMEM+10% FBS
Protocol: FIG. 24A, FIG. 24B, FIG. 24C and FIG. 24D. An artificial dimeric β2GPI construct binds endothelial cells with exposed PS. ABAE cells were incubated for 30 min with 200 μM LPC in DMEM+10% FBS plus purified hβ2GPI-monomer (FIG. 24A), hβ2GPI-dimer (FIG. 24B), or a mutant hβ2GPI-dimer unable to bind lipid (FIG. 24C). Cells were then washed and incubated with anti-β2GPI to detect hβ2GPI monomers and dimers. […] Cells were then washed, fixed and stained with fluorescent markers. The cytoskeleton appears red, nuclei appear blue, and hβ2GPI-monomers and hβ2GPI-dimers appear green. FIG. 24D, the binding area of hβ2GPI-monomers and hβ2GPI-dimers was quantified using MetaVue software. All values are relative to the binding of hβ2GPI-dimers to non-LPC treated cells, which was set to one.
In these studies, an artificial β2GPI dimer is used, which was generated by fusing hβ2GPI to the C-terminus of the apple 4 dimerization domain of factor XI (Lutters et al., 2001). […] Nonetheless, binding of this dimer to cells with exposed PS validates the use of Fc-β2GPI dimers to bind to PS-positive cells.
ABAE cells were treated with LPC to induce PS exposure and incubated with purified hβ2GPI, hβ2GPI-dimer, or a mutant hβ2GPI-dimer containing a disrupted lipid binding domain. As expected, binding of the monomeric hβ2GPI to LPC-treated ABAE cells was negligible (FIG. 24A).

[4] = test system: ABAE cells with exposed PS; test: Live-cell binding assay on LPC-treated endothelial cells; format: cell-based, bovine
Protocol: Adult bovine aortic endothelial (ABAE) cells were maintained in DMEM supplemented with 10% FBS and 2 mM L-glutamine. ABAE cells were removed from subconfluent cultures by brief exposure to 0.25% trypsin/0.02% EDTA, and 8-well chamber slides were seeded with 2×10^4 cells/well. Following overnight culture, cells were washed gently with PBS and treated with 200 μM lysophosphatidylcholine (LPC) to induce PS exposure.
PS exposure was determined by immunofluorescence staining. Cells were washed thoroughly in PBS, fixed in 4% paraformaldehyde (w/v), and incubated with a biotin-conjugated anti-mouse secondary antibody. Next, cells were incubated with FITC-conjugated streptavidin (Jackson Immunoresearch) to detect antibody binding. Cells were then permeablized with 0.1% Triton-X100 in PBS and counterstained with Texas Red-conjugated phalloidin (Molecular Probes, Eugene, Oreg.), and 4′, 6-diamidino-2-phenylindole (DAPI; Molecular Probes). Images were captured using a Coolsnap digital camera (Photometrics, Tucson, Ariz.) mounted on a Nikon microscope and processed with MetaVue software (Universal Imaging Corporation, Downingtown, Pa.).
The area of antibody binding was determined using MetaVue image analysis software, which is able to quantify the number of illuminated pixels in an image. Images of FITC fluorescence were used to quantify antibody binding. Corresponding images of DAPI fluorescence were used to normalize the FITC images for the number of cells present in the field. A small FITC/DAPI ratio indicates a small antibody binding area, whereas a large FITC/DAPI ratio indicates a large binding area. The FITC/DAPI ratios were used to determine increases or decreases in antibody binding area relative to a basal amount of antibody binding under the selected conditions. Five images at 200× magnification were used for each analysis. Data are presented as average relative FITC/DAPI ratios with error bars representing the standard deviation.
Cells were then washed, fixed, and stained with fluorescent markers to visualize binding of antibody to the cell surface.

ABAE cells = test: Fc-mβ2GPI binding to cells with exposed PS; format: cell-based, bovine
Protocol: FIG. 22A, FIG. 22B and FIG. 22C. Fc-mβ2GPI detects PS exposed on naturally apoptotic ABAE cells. 2×10^4 ABAE cells were seeded onto 8-well glass chamber slides in DMEM+10% FBS overnight at 37° C. The next day, cells were washed and incubated with 2aG4 (FIG. 22A), supernatant from Fc-mβ2GPI transfected CHO cells (FIG. 22B), or mock transfected cells (“control supernatant”, FIG. 22C). 2aG4 and Fc-mβ2GPI were detected with a FITC-labeled secondary antibody (green). The cytoskeletons and nuclei were counter-stained with Texas Red-labeled phalloidin and DAPI (blue), respectively. Arrows highlight apoptotic cells.
FIG. 23A and FIG. 23B. Fc-mβ2GPI detects PS exposed on LPC-treated ABAE cells. 2×10^4 ABAE cells were seeded onto 8-well glass chamber slides in DMEM+10% FBS overnight at 37° C. The next day, cells were washed and incubated supernatant from Fc-mβ2GPI transfected CHO cells. Fc-mβ2GPI was detected with a FITC-labeled secondary antibody (green). The cytoskeletons and nuclei were counter-stained with Texas Red-labeled phalloidin and DAPI (blue), respectively. FIG. 23A and FIG. 23B each depict binding of Fc-mβ2GPI, seen as small pinpoints of green staining.

[5] = Fc-mβ2GPI binding to PS-coated plates; conditions: cell culture supernatants #8 and #18
Protocol: FIG. 20. Fc-mβ2GPI binds PS on PS-coated plates. In this binding assay, a microtiter plate was coated with PS and blocked with 1% OVA. Serial dilutions of Fc-mβ2GPI cell culture supernatants were performed in 1% OVA. #8 and #18 are two different clones of Fc-mβ2GPI. Binding was detected with anti-mouse IgG-HRP.
Fc-mβ2GPI was able to bind to PS on PS-coated plates.

[6] = Fc-mβ2GPI binding to phospholipids in 10% FBS
Protocol: FIG. 21. Fc-mβ2GPI binds anionic phospholipids. This assay measures Fc-mβ2GPI binding to phospholipids in 10% FBS. The microtiter plates were coated with various lipids, as indicated, and blocked with 1% OVA. Serial dilutions of Fc-mβ2GPI cell culture supernatant were performed in 1% OVA. Binding was detected with anti-mouse IgG-HRP.

monophosphoryl lipid A [MPL]
dose shown to be safe for human use [1]: 100 μg/m^2

NC(=O)c1nnn(Cc2cc(Cl)c(C(=O)c3ccc(Cl)cc3)c(Cl)c2)c1N [CAI, carboxyamidotriazole]
patients with disease stabilization [2]: 49%

B1: hβ2GPI: Human β2GPI purified from human plasma (protein)
chain: GRTCPKPDDLPFSTVVPLKTFYEPGEEITYSCKPGYVSRGGMRKFICPLTGLWPINTLKCTPRVCPFAGILENGAVRYTTFEYPNTISFSCNTGFYLNGADSAKCTEEGKWSPELPVCAPIICPPPSIPTFATLRVYKPSAGNNSLYRDTAVFECLPQHAMFGNDTITCTTHGNWTKLPECREVKCPFPSRPDNGFVNYPAKPTLYYKDKATFGCHDGYSLDGPEEIECTKLGNWSAMPSCKASCKLPVKKATVVYQGERVKIQEKFKNGMLHGDKVSFFCKNKEKKCSYTEDAQCIDGTIEVPKCFKEHSSLAFWKTDASDVKPC
binding to LPC-treated ABAE cells [3]: negligible
mediation of ch3G4 binding to ABAE cells with exposed PS ([4]; 2 μg/ml, LPC): able to mediate binding
binding to endothelial cells with exposed PS ([4]; 10% MS and LPC, absence of ch3G4): does not bind endothelial cells with exposed PS in the absence of ch3G4

B2: Fc-mβ2GPI: Fc region of mouse IgG2a attached to full length mouse β2GPI (domains I-V); SEQ ID NO:19 (protein, listed as Mus musculus)
chain: EPRGPTIKPCPPCKCPAPNLLGGPSVFIFPPKIKDVLMISLSPIVTCVVVDVSEDDPDVQISWFVNNVEVHTAQTQTHREDYNSTLRVVSALPIQHQDWMSGKEFKCKVNNKDLPAPIERTISKPKGSVRAPQVYVLPPPEEEMTKKQVTLTCMVTDFMPEDIYVEWTNNGKTELNYKNTEPVLDSDGSYFMYSKLRVEKKNWVERNSYSCSVVHEGLHNHHTTKSFSRTPGKTGGRICPKPDDLPFATVVPLKTSYDPGEQIVYSCKPGYVSRGGMRRFTCPLTGMWPINTLRCVPRVCPFAGILENGIVRYTSFEYPKNISFACNPGFFLNGTSSSKCTEEGKWSPDIPACARITCPPPPVPKFALLKDYRPSAGNNSLYQDTVVFKCLPHFAMIGNDTVMCTEQGNWTRLPECLEVKCPFPPRPENGYVNYPAKPVLLYKDKATFGCHETYKLDGPEEAECTKTRTWSFLPTCRESCKLPVKKATVLYQGMRVKIQEQFKNGMMHGDKIHFYCKNKEKKCSYTVEAHCRDGTIEIPSCFKEHSSLAFWKTDASELTPC
binding to LPC-treated ABAE cells (ABAE cells): bind to PS exposed at the cell surface
staining of naturally apoptotic ABAE cells (ABAE cells): stain the apoptotic cells
binding to PS on PS-coated plates [5]: bind to PS in a concentration-dependent manner
binding to phospholipids [6]: binds to the anionic phospholipids PS, PA, PI and PG, but not to the neutral lipids, PC and SM
